The data set can be described thus: soluble fraction after stress (log2 fold change); higher = more stays soluble; pooled small domains, quantitative proteomics. The following applies: stress: 50 degC. A digest of the protocol: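 The stress applied to every library was 50°C. These custom libraries of small protein domains were pooled and measured at high throughput with quantitative proteomics as the read-out. Aggregation propensity is expressed as the base-two logarithm of the fold change in how much of each protein remains soluble. The higher the value, the more of that protein stays in solution.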
For “HMIGDNNELFQKAQLTPREKEVALLLLQGETNSDIAKILYVGLSTVKKHISSIFEKTKVKSRTEFISKVR”, the “soluble fraction (log2)” value was -0.803.

In the case of “HMIGDYALILNIKGGSDWYLGNRVELLFTDGTSKIVTTDKDYNAKKDMVPTQIVTYKVNDNGEYSLKALPT”, the “soluble fraction (log2)” value was -2.01.

Consider “HMIGEKLKEIREKTGMNKKEFAQYLGLKYTTYNNYETEAREPASDFLILISTKFDVSIDYLLGLQ”, for which the “soluble fraction (log2)” value is -0.674.

“HMIGIEALAGEIDRVRQVLTGGGGLSDVQLFSQLKALNEIKAALGASPDPRAPELVQRVDQLLEAAFRS”: the “soluble fraction (log2)” value is -0.0467.

Turning to “HMIGIGSDVPNKLKPAIYSFGLVAVGEKSVIPDGVQIGKNTAVSGVTSKEDYPDGVLESGETLIKA”, the “soluble fraction (log2)” value was determined as 0.0103.

As for “HMIGKLTSSKLAAIHKMKTNELLAHFTEKGFLNINDAGKYILTQQGKDVGAEFKTSQYGGYFLWPENIE”, the “soluble fraction (log2)” value was -0.841.

As to “HMIGTPLSEWQKDAPEEITRDQIAELVILKFVTVEQLALASDAQLQRIGMGGVGLRERAKLYLNRK”, the “soluble fraction (log2)” value is -1.15.

With “HMIGVNMEKSTVEKFANELNLPIDLLLKQLESAGIKKTSGAEELLEADKSALLNYLQIEHGA”, the “soluble fraction (log2)” value came to 0.085.

With “HMIGVQEFAMTYALTRRETEITQLIIQGKSNAMIAGELFISETTVKKHVSNIFEKTGVSRREELMVRVQAE”, the “soluble fraction (log2)” value was -1.44.

As for “HMIHANGLTDRQEMILEFIRSYISENNYPPSVREIGKGVGLASSASVHNNMKKLASLGFLNWDTD”, the “soluble fraction (log2)” value was -1.25.

Regarding “HMIHFDHPERSILDTMLYEKKGMTAQSARNRLAAYQFQGEDVFKPVSVLSGGELSRITLAIKNAMADK”, the “soluble fraction (log2)” value was -0.186.

Consider “HMIHQPNNETTRNLIAGVVKKSLSVWETRVQVDGVDVTTAKDNLAEVHINIRYRLRHNQTPASLGLRLNLG”, for which the “soluble fraction (log2)” value was 0.00106.

As for “HMIHSEDMDDHILGHKLVDQYLNKHIEFDNIKKAWNYHTVAIKKFGRYPHRNKILKRESTIEEIDFLKQP”, the “soluble fraction (log2)” value is 0.149.

“HMIHSEEIQDHIFVKQLGEVFLRNHINYENIMKSWDDHTNVIKRFRRYPHRNKILNRESTIDEISFLKE”: the “soluble fraction (log2)” value is -0.0665.

In the case of “HMIIDTELMTRVMKFGFSQADASDLVAQHSDDLLRTAISRVEARAESKGMTPLETPAGYFRWTLQDLVRNP”, the “soluble fraction (log2)” value was -1.24.

As for “HMIIIMKKSATNSEVRKVIERAEKEGLTVQVNQLEKQQVLGLVGDTRLIQDVAFLRYEGVENVERI”, the “soluble fraction (log2)” value was -0.776.

As to “HMIILYTDEQQRIIDRLNEFIGEQPSQNEAAKLLGISAPILTNLRKGTYTGTVDKFMNKLAAYFNIKADLG”, the “soluble fraction (log2)” value is -1.05.

As for “HMIIMVNLYQIWDKEVQGLDSVGAKPEQIEARRQAIAAHFESKARQAGMSSKDIYATLDNFDTYSRQKTS”, the “soluble fraction (log2)” value is -2.28.

For “HMIINFDAIRLTTELNKYNRHKAIPNSFFDGTFTILDVRDLYDSLSPKVQKIADTLIEQYNVDVKQ”, the “soluble fraction (log2)” value was -1.85.

With “HMIISMKKGATPQEISHVRKLIEELGYKVHESQGSERMVFGAIGDERSKHRLTSLEAQPGVEKVIPILA”, the “soluble fraction (log2)” value is 0.191.

Turning to “HMIISMKKTATKEQIAHVRELIEGMGYKAHMSVGAERVIFGAIGDERGKERLVSLEAQPGVEKVIPIL”, the “soluble fraction (log2)” value is 0.255.

In the case of “HMIITLNIENLKRARENAGLTQTQAAQKIGVSDGTYKNYEQGKREPNGDKIVTIANAFGVTTDYLLGR”, the “soluble fraction (log2)” value is -0.334.

For “HMIIVMRKGATEAQVNDIVERVRAAGFGVHLSQGEERTIIGAIGGDRAVLADLNLEAAPGVERVTPIS”, the “soluble fraction (log2)” value stood at 0.0417.

For the sequence “HMIIYGLNPVKDFINLFPNKISTLFISKNKLSDSEMKSVVNINTVYVSDAELKRITGTTKHQSLAAEID”, the “soluble fraction (log2)” value was -1.21.

In the case of “HMIKILGSAYRHGLDDDDILRAWNYHIQEFFEGEDPEKIVRLGFDTHGRLLEIGGEIYPGGGEKIFHAM”, the “soluble fraction (log2)” value was -0.729.

For the sequence “HMIKITLPDGSVKEYKKGITPAEVAQSISEGLARNVISASYNGKTIETVTPLTTDGSLVLYTWDSPEGK”, the “soluble fraction (log2)” value is 0.193.

“HMIKLTVRQQEILDLIARSIDQTGFPPTRAEIAAELGFKSVNAAEEHLQALARKGVIEMVPGISRGIRLVQ”: the “soluble fraction (log2)” value is -0.395.

As to “HMIKRNPLDEIEGVGPGRKKALLHAFGSAKGVSRASVVDLVKVEGVSQALAERIHDFFHPATR”, the “soluble fraction (log2)” value was -0.113.

For “HMIKSIRELAEVITLWKNQGKTILIAEHRLSYLMDLADRVLYMKDGQIENDFSMADFRKIPPDEISRMGLR”, the “soluble fraction (log2)” value was -0.126.

As to “HMIKVAANESNRSDVLEIVRLFRVRVVDVNPESLTIEATGAEGKIDALLGLLEHYGVIELVRSGAVAVT”, the “soluble fraction (log2)” value was -0.435.

Take “HMILESREKYLGEVLEVLVEEEKEGEYFGYSQNYLRVKFKLEEKNLINQLINIKIKSIEDDILIGEKEN”: the “soluble fraction (log2)” value was -1.46.

Take “HMILKNVTSDLANKRLDKVASILFQTYSRTQIKKWILEGRVLVNGEISNPKDHVHENDEIEINPI”: the “soluble fraction (log2)” value was -1.04.

“HMIMISKSFEINEDNINKRLDIFLTENLDGLSRGIVQKYISLEQITVNKESSHKDYRLKLDDFIEVKIQAH”: the “soluble fraction (log2)” value was -3.76.

Take “HMIMNDIQAKVLEIAETKDLGSITYYRLSKMLGVDHPYRVKYAIDKLIEKGLLTAKSDGSITKAI”: the “soluble fraction (log2)” value is -0.601.

In the case of “HMIMTTKVSGIMFDKFNPSAILNINGMDYLVRSGDIINGYKILSIGQETVTVQYGANVYKASVG”, the “soluble fraction (log2)” value is -2.26.

As to “HMIMVAGHLQIKKGKYYMVLELKSESGERKTKWISTGLSAKGNKRKAEAMLEEARENYQSTDA”, the “soluble fraction (log2)” value was -0.899.

Consider “HMINIFKVKKAMEEIFASEWEDSPYTDQKISQILWSRGFSVSTGLVEKYRGQMGVPDANSRLNLN”, for which the “soluble fraction (log2)” value was -2.38.

“HMINIGANIRAIRKQKNIKQVDLVRLLQLEGVEITRETLVKIESGVQHIKASQLRGIRDALGTTYDELL”: the “soluble fraction (log2)” value was -2.95.

Turning to “HMINITALVKQLGGVDISKFNSAFKLLQQGKPLNTISNKVMADTFVALMKNSDEALNTKFRAAFKKI”, the “soluble fraction (log2)” value is -0.272.

As for “HMINKIANLSAELRMEGLPVSIRSTQAAVKIYMDLGGDDRNLLKTALMSIYVKDRYDIPKFNKVFEKLFA”, the “soluble fraction (log2)” value is -1.12.

For “HMINKQPKDYEYFLEKWHFTQTEKHQLHNLILKLNIRYPNKDFLKITENLDNGKLVLKKLEERLSKT”, the “soluble fraction (log2)” value was -1.05.

On to “HMINNINKLPETQFIKLFANIFENSQFIAVALYKKKGDGFSDFKDLINKIMDIFENTTKEKKLKILNA”, for which the “soluble fraction (log2)” value is -0.0982.

For “HMINPASEKQLSFANSLIAKKEGGTETLNHYLHNRKVSSLEELDRKDVSEIINALKFAKEVT”, the “soluble fraction (log2)” value was determined as 0.217.

Turning to “HMINRPVYVPLYTNLDVKDAAEIAEKLEENNIAYKLEDQGETILVNPEQKYKVRLMLAQEGLPKG”, the “soluble fraction (log2)” value was -0.0681.

Regarding “HMINSFDYLQAIFTELMKSQSKMTNQDAAKRLFMQGKVAVSNRDREGLRMVLAQLVTLLPKEELGGLSTVS”, the “soluble fraction (log2)” value was 0.0921.

For “HMIPESVQGIEEFLATGALKGIGKKTAAAIVHKFGKDTLRIMEEEPERLAEVSGIGEKKAAAIGEAFALH”, the “soluble fraction (log2)” value was found to be 0.171.

Turning to “HMIPNPMTDRELEVLGLLASGKTYKQVARALDLSQSTVRNHLHNVYHKLNVVDRAQAVIVSRENGW”, the “soluble fraction (log2)” value was -0.289.

“HMIPPGTITIEGAITKVPVFLDGKQIGTVPLTKEDVEPGKYRIRVLGVGRVITIDPGEKENVLFSGEDLGL”: the “soluble fraction (log2)” value was -0.142.

In the case of “HMIPTDPNGDLIKILYTSDQINELYARAKLNDVEDLFLDWTKNVLGESNFEETGPTKNEYLIPQ”, the “soluble fraction (log2)” value is -0.149.

On to “HMIPTTELAERLGTTKVANMIMLGALIKASGIISFDDMIKNLGELLGEGKAKLIKLNKEALEVGFN”, for which the “soluble fraction (log2)” value is -0.0172.

Turning to “HMIPYSDLLKLLSNDAMPKFRNKDGWAKIHALETYLASRWSYQEYGFASFTVLLETVHNAEIRNDSVRLM”, the “soluble fraction (log2)” value is -0.343.

With “HMIQTMVVTDLKNGTIFKENGHPFIVLKYEHIKVSRGSAQVRVKMKNLITGQVLEKSWQSTAHVDDT”, the “soluble fraction (log2)” value is -2.1.

On to “HMIRMPNLIGLSVRSAEQQLVIAGLKKGIVHQVNDPRLKEVIDMQALGHKITAGSSIPKGTEVDLYIGNGT”, for which the “soluble fraction (log2)” value stood at 0.146.

As to “HMISAVDLMAARRKIEAGITNLQPGQAFTLPNKVGWVKRMTGGSYFIQGNGGYTASVRTISEAIQAAAMLL”, the “soluble fraction (log2)” value was -0.394.

“HMISDQENDLNLKHLFDTADQNKDGLILESELKMLMTNLEINKETYDTVMKQITPAGMDYKTFSSL”: the “soluble fraction (log2)” value worked out at 0.0963.

For the sequence “HMISFLNFVRKEIDASQLKDSTKQNHLTTIGLLQSFKPSIEFKDLNYNFITSFEKYLYDAGYQM”, the “soluble fraction (log2)” value was 0.133.

In the case of “HMISKQQRQALILDIIQKQSITSQEALLTELQRHHVMTTQTTVSRDIRALGIVRIKDVNGELSYQQLQ”, the “soluble fraction (log2)” value was -2.5.

For the sequence “HMISKRFQIDEDNSNKRIDIFLTQSLDSISRGIVQQLILENKVEVNGGPVKRNYLIKIGDVIDVKIDL”, the “soluble fraction (log2)” value was -0.939.

On to “HMISKTFEINEDNINNRLDIFLANQFDNLSRGIVQKLIESHSVSVSGNFVEKDYKLKLGDIIDVEINLS”, for which the “soluble fraction (log2)” value was -0.486.

Regarding “HMISLNEDQKLAILNEWNQRPDDPPFIKELIELVFPDIPEEAKTGRSRYGIAIKKFLAEKSLQAKV”, the “soluble fraction (log2)” value was -0.305.

Turning to “HMISLPSYIREEATEVYNRLHDLGLEYTSLDVNDDSIPKGYVVRTVPEAGASVPAGQVVTVYVSLG”, the “soluble fraction (log2)” value is -0.446.

Take “HMISQLRGKVLGTDRDALVIDVGGVGFRVSATAGARALAGQSGNEARLFTEMVVREDSIDLFGF”: the “soluble fraction (log2)” value worked out at 0.217.

As for “HMISRKIKELRLSHDLTQKDLADYLNLTPKMVSFYELGQRVPPSDIILKLAEKFHVSTDYLLGNEDRP”, the “soluble fraction (log2)” value was -0.0279.

As to “HMITDNEFLRIVSFLKQRYGIDMSQKKVIMNGRLENYLKSGGWSSFDEYMNDVEKDTSGDLEKTLVNFLTT”, the “soluble fraction (log2)” value is -0.537.

Take “HMITETIGANIKTLRDKFRMSQQDLASKMNTARPVISNWENGKTEPSSSQLLKLAKIFDTSTDKILGNV”: the “soluble fraction (log2)” value is 0.163.

With “HMITKEDVANKKVNLLFFGNFHKMKLPDFEWGITEMMQDRDYLYGSLTKDLYFLGLVLDRKYKI”, the “soluble fraction (log2)” value amounted to 0.0334.

Consider “HMITKENYLEKIKEIKVNEFPASMRELYDFFNEATRNGTDWSAYEEGNVKYVVDAYLERLNLLYKSN”, for which the “soluble fraction (log2)” value is -0.175.

Take “HMITLYIHNLEEVGKRLDHYLVSNLDDHSRSQIQSWIRSGSILVNDRSVKTGYSLELNDQILINPPK”: the “soluble fraction (log2)” value was -2.63.

Source of the values: the domain aggregation screens of Martell et al. (2025).
